Results published in patent publication US12636342B2, “TARS derived from Akkermansia muciniphila or fragment thereof, and use thereof” (KOREA RESEARCH INSTITUTE OF BIOSCIENCE AND BIOTECHNOLOGY, priority 2020, dated 2026).
One block for each molecule: values may come before it.

Assays:
BMDMs [1] = test: Immunoblotting of AmTARS/TLR2-induced signaling molecules in BMDMs; format: cell-based, mouse; details: BMDMs stimulated for 30 min, 0.5 μM
Procedure: (A and B) Analysis of key molecules that inhibit the MAPK and PI3K/AKT signaling pathways. IL-10 produced by BMDMs pre-treated with inhibitors of ERK (PD98059, […]), p38 (SB203580, […]), MSK1/2 (SB747651A, 10 μM), CREB (666-15, 1 μM), PI3K (Wortmannin, 10 μM), and AKT1/2 (AKT1/2, 10 μM) for 1 h before treatment with either PBS or AmTARS for 24 h (n=6 per group) (A). Flow cytometry analysis of M2 macrophages in BMDMs pre-treated for 1 h with the indicated kinase inhibitors, before treatment with either PBS or AmTARS for 24 h (n=3 per group) (B). (C and D) Western blot analysis of MAPK signaling molecules in lysates of BMDMs (C) or THP1 cells (D) treated for different times with 0.5 μM AmTARS. (E) Western blot analysis of lysates of BMDMs pre-treated with α-IgG (Isotype, 1 μg ml-1) or α-TLR2 (1 μg ml-1) for 1 h before treatment with PBS, AmTARS (0.5 μM), or Pam3 (0.5 μM) for 30 min. (F and G) Western blot analysis of PI3K/AKT signaling molecules in lysates of BMDMs (F) or THP1 cells (G) treated with 0.5 μM AmTARS. (H) AmTARS activates both TLR2/1- and TLR2/6-mediated signaling. Activation of AKT, ERK, and CREB was measured by western blot analysis of lysates of THP1 cells pre-treated with α-IgG, α-TLR1, α-TLR2, or α-TLR6 (1 μg ml-1) for 1 h before treatment for 30 min with PBS or AmTARS (0.5 µM). Data shown in (A and B) are representative of three independent experiments, each with similar results (mean±SEM). P-values were calculated using an unpaired two-tailed Student's t-test. Data shown in (C-H) are representative and repeated at least three times.
Subsequently, we conducted immunoblotting assays to measure the time-dependent activation of AmTARS/TLR2-induced signaling molecules in both BMDMs and THP1 cells. AmTARS rapidly activated ERK, p38, and MSK1/2 within 15 min and, subsequently, phosphorylation of CREB at Ser133 (which is essential for IL-10 production) within 30 min in BMDMs (FIG. 31C) and THP1 cells (FIG. 31D). We then compared AmTARS-triggered TLR2 signaling with typical ligand-triggered signaling using Pam3CSK4 (the synthetic canonical TLR2/1 agonist, referred to hereafter as Pam3) in BMDMs stimulated for 30 min. […] By contrast, activation of NF-κB was greater in Pam3-treated BMDMs than in AmTARS-treated BMDMs (FIG. 31E).

BMDMs [2] = test: Global gene expression profiling (RNA sequencing) of BMDMs; format: cell-based, mouse
Procedure: (A-E) Global gene expression analysis. Total mRNA from BMDMs treated with either AmTARS (0.5 μM) or Pam3 (10 ng ml-1) for 1 or 3 h was isolated and analyzed by RNA sequencing (A). Principle components analysis (PCA) of the gene expression profiles for each sample (B). Hierarchical clustering of gene expression profiles from each sample identified cluster 3 and 4 (C). Gene set enrichment analysis (GSEA) of clusters 3 and 4 with respect to terms related to inflammation (D). […] (F) Overview of the experimental procedures for zebrafish. The yolk of Tg (NFκB:EGFP) transgenic zebrafish larvae (3 dpf) was injected with PBS or AmTARS. Injected larvae were treated at 3 and 5 dpf with 0.5% DSS for 24 h, with a washing period with fresh water for 24 h in between. Sample collection and analysis of Tg (NFκB:EGFP)-based EGFP intensity were conducted at 6 dpf. (G) Representative confocal images showing NF-κB signaling in the mid-distal intestines of PBS- or AmTARS-injected larvae with or without DSS treatment. White dashed lines denote the boundaries of the intestines (based on merged DIC bright field images). (H) Bar graph comparing the fluorescence intensity of the mid-distal intestines of PBS- or AmTARS-injected larvae treated (or not) with DSS (n=32 per PBS group and n=35 per DSS group). (I) Schematic model of the role of AmTARS in maintaining immune homeostasis via TLR2-mediated anti-inflammatory signaling pathways. Data shown in (A-C) are representative and repeated twice. Data shown in (H) are representative of three independent experiments, each similar results (mean±SEM). P-values were calculated by unpaired and two-tailed Student's t-test.
We next performed global gene expression profiling of BMDMs treated with AmTARS or Pam3 for 1 or 3 h (FIG. 32A). […] Subsets of genes showing different expression patterns between AmTARS and Pam3 were classified into six clusters by hierarchical clustering analysis (FIGS. 33A and 33B). The gene expression pattern at 3 h was particularly different for clusters 3 and 4 (FIGS. 32C, 33A, and 33B). […]

BMDMs from TLR2-KO mouse = test: IL-10 production in BMDMs from TLR2 knock-out mice; format: cell-based
Description: The TLR2-dependent immune function of AmTARS was further corroborated using TLR2 knock-out (KO) mice. […] However, IL-10 production by […] (U1/U2) was abolished in BMDMs from TLR2-KO mice, providing further evidence that AmTARS regulates host immune cells via its unique regions in a TLR2-dependent manner (FIG. 28D).

[3] = tested on: mouse bone marrow-derived macrophages (BMDMs); test: ELISA of immune cytokine secretion in BMDMs under normal conditions; format: cell-based; details: normal (non-inflammatory) conditions, 24 h
Procedure: Specifically, mouse bone marrow-derived macrophages (BMDMs) as mouse-derived immune cells were extracted from the mouse thighbone and shinbone, and then cultured in DMEM containing 10% fetal bovine serum (FBS) and antibiotics. Human macrophages (THP1) as human-derived immune cells were cultured in RPMI media containing 10% FBS and antibiotics.
The cultured cells were treated with AmTARS at 0.1 μM, 0.2 μM, and 0.5 μM for 24 h to obtain cell cultures. For cell removal, the media were centrifuged at 500×g for 10 min to obtain supernatants, which were then analyzed using an ELISA set (mouse interleukin (IL)-6, mouse IL-10, mouse tumor necrosis factor (TNF)-α, human IL-6, human IL-10, human TNF-α; BD Biosciences) to investigate the secretion of mouse- and human-derived immune cytokines. […]

TLR4-FLAG = biological target: T1, TLR4-FLAG (UniProt O00206 24-839, limits assumed); test: Strep pull-down from HEK 293T cells co-expressing Strep-AmTARS and TLR4-FLAG, immunoblot
T1 construct: not shown: FLAG tag

[4] = biological target: T2, mouse TLR2 on bone marrow-derived macrophages (BMDMs), Q9QUN7
T2 chain: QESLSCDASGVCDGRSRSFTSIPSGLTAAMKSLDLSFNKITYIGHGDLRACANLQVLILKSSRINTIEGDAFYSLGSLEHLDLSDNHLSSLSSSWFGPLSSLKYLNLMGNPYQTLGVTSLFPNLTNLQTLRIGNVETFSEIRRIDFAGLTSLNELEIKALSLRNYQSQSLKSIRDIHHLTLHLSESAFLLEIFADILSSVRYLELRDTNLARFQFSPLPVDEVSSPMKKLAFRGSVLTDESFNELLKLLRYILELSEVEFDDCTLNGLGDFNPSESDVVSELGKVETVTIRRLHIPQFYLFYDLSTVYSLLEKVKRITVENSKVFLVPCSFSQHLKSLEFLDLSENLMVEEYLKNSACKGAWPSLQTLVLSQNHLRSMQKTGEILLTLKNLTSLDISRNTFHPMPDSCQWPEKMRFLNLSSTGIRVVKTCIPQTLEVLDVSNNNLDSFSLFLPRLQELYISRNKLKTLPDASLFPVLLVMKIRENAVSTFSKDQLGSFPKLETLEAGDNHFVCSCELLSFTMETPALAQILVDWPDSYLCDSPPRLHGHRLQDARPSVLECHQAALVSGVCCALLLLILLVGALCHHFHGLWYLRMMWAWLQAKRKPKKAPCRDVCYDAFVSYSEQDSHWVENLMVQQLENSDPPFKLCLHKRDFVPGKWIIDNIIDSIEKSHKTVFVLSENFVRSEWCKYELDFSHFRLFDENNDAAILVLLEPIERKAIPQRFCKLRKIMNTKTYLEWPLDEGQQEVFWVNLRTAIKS

T1 sequence (O00206 24-839 limits assumed): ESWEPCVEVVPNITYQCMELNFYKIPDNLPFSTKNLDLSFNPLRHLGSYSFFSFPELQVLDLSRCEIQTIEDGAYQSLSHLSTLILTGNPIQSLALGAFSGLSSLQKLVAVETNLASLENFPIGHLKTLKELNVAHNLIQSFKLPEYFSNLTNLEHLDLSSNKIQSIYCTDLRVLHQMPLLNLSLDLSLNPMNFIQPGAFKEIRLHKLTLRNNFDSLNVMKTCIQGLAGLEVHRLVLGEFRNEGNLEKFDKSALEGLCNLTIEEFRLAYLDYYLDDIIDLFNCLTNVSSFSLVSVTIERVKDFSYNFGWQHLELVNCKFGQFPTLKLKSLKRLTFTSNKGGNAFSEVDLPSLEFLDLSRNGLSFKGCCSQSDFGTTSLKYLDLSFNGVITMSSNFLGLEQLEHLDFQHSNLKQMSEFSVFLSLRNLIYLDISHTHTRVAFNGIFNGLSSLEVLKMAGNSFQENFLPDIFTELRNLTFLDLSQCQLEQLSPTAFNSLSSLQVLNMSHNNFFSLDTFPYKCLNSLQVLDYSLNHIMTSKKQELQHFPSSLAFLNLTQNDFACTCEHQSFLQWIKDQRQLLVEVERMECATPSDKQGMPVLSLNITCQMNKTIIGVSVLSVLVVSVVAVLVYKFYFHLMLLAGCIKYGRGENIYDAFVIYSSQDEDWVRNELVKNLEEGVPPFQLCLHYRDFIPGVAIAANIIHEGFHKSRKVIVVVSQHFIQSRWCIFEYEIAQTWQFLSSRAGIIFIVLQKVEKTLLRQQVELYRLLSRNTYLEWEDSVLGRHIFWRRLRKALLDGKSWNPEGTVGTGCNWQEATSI

Molecule: Pam3CSK4
activation of NF-κB, Pam3 versus AmTARS (BMDMs [1]): greater
transcription factors associated with up-regulated genes (BMDMs [2]; GSEA (Enrichr)): up-regulation of inflammation-related transcription factors such as NF-κB, RELA, and TFAP2A
gene set enrichment analysis, inflammatory response-related genes (BMDMs [2]; Pam3 compared with AmTARS): significant induction of inflammatory response-related genes

B1: EcTARS (U1/U2): Engineered EcTARS incorporating the AmTARS U1 and U2 regions, SEQ ID NO: 18 (protein)
chain: MPVITLPDGSQRHYDHAVSPMDVALDIGPGLAKACIAGRVNGELVDACDLIENDAQLSIITAKDEEGLEIIRHSCAHLLGHAIKQLWPHTKMAIGPVIDNGFYYDVDLDRTLTQEDVEALEKRMHELAEKNYDVIKKKVSWHEARETFANRGAESGELGALGPRSEPESYKVSILDENIAHDDKPGLYFHEEYVDMCRGPHVPNMRFCHHFKLMKTAGAYWRGDSNNKMLQRIYGTAWADKKALNAYLQRLEEAAKRDHRKIGKQLDLYHMQEEAPGMVFWHNDGWTIFRELEVFVRSKLKEYQYQEVKGPFMMDRVLWEKTGHWDNYKDAMFTTSSEKLSQEGASCAELFNGLATGTIEGNREYCIKPMNCPGHVQIFNQGLKSYRDLPLRMAEFGSCHRNEPSGSLHGLMRVRGFTQDDAHIFCTEEQIRDEVNGCIRLVYDMYSTFGFEKIVVKLSTRPEKRIGSDEMWDRAEADLAVALEENNIPFEYQLGEGAFYGPKIEFTLYDCLDRAWQCGTVQLDFSLPSRLSASYVGEDNERKVPVMIHRAILGSMERFIGILTEEFAGFFPTWLAPVQVVIMNITDSQSEYVNELTQKLSNAGIRVKADLRNEKIGFKIREHTLRRVPYMLVCGDKEVESGKVAVRTRRGKDLGSMDVNEVIEKLQQEIRSRSLKQLEE
modifications: EcTARS(U1/U2)
IL-10 production (BMDMs from TLR2-KO mouse): abolished
secretion/production of IL-10 [3]: conferred the ability to trigger IL-10 production

binding result (TLR4-FLAG): no binding
B2: Strep-tagged Akkermansia muciniphila threonyl-tRNA synthetase (Strep-AmTARS) (enzyme)
chain: MSEHKERKTLEERQQMSDLERLRHSCAHVLATAICRLWPDAQLAGGPAVDNGFYYDVELDHRISTEDFERIEEEMKKVVKENQVFQKEVISRADAMKMAESGELGALGPRSEPSRFKIDLLNDIPEDEEISLYRNGDFTDLCAGPHVGRTGNCKAFKIMSVASAFYKGDKNRPMLQRIYGTCFPNRTQLDEHLERLEEARRRDHRKLGRELGLFCIDESVGQGLILWKPKGALIRRSLQDFITEELDKLGYSQVYTPNIGKLDLYRTSGHFPYYQESQYAPIPERDAMEKLSQEGASCAELFNGLATGTIEGYMLKPMNCPHHIKIYANDAHSYRDLPVRLAEFGTVYRWEQSGELGGMTRVRGFTQDDAHIFCTPDQLAGEIRQCLGIVKTIFGTLGMTDYRVRLSMRDPESDKYVGSPENWDKAEQALREAAEWLGADYSEEAGEAAFYGPKIDFIVRDAIGREWQLGTVQVDYNLPERFDLHYTGADNKPHRPVMVHRAPFGSMERFTGLLIEHFEGKFPTWLSPEQVRVLPISDKVTDVAAAHRTALAARGVRVTVDETPDKIGAKIRNARLDRVPYMLVLGQREAEDGTVSVRHRDKGDLGAMPFEQFADLVAREIAERHISPVI
notes: The tag is put N-terminal from the name 'Strep-AmTARS'; not shown: 2 x Strep tag from vector pEXPR-IBA105
activation of PI3K and AKT, and phosphorylation of GSK3β at Ser9 (western blot) in BMDMs [4]: AmTARS activated PI3K and AKT, and subsequently inhibited GSK3β activity via AKT-mediated phosphorylation at Ser9, in BMDMs
